T1: wildtype feline IL-31 protein (Feline_IL31_wildtype) (feline)
T1 chain: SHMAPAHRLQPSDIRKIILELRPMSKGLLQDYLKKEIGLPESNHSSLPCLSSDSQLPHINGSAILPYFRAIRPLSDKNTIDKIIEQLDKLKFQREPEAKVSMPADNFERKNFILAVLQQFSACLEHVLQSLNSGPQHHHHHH

B1: A32 (antibody, V domains shown)
VH: QVLLVQSGAEVRTPGASVKIFCKASGYSFTAYTIHWLRQAPAQGLEWMGNINPTSGYTENNQRFKDRLTLTADTSTNTAYMELSSLRSADTAMYYCARWGFKYDGEWSFDVWGAGTTVTVSS
VL: EIQMTQSPSSLSASPGDRVTITCRASQGISIWLSWYQQKPGNIPKVLINKASNLHIGVPSRFSGSGSGTDFTLTISSLEPEDAATYYCLQSQTYPLTFGGGTKLEIK
B2: A44 (antibody, V domains shown)
VH: QVLLVQSGAEVRTPGASVKIFCKASGYSFTSYTIHWLRQAPAQGLEWMGNINPTSAYTENNQRFKDRLTLTADTSTNTAYMELSSLRSADTAMYYCARWGFKYDGEWSFDVWGAGTTVTVSS
VL: EIQMTQSPSSLSASPGDRVTITCRASQGISIWLSWYQQKPGNIPKVLINKASNLHIGVPSRFSGSGSGTDFTLTISSLEPEDAATYYCLQSQTYPLTFGGGTKLEIK
B3: A39 (antibody, V domains shown)
VH: QVLLVQSGAEVRTPGASVKIFCKASGYSFTSYTIHWLRQAPAQGLEWMGNIAPTSGYTENNQRFKDRLTLTADTSTNTAYMELSSLRSADTAMYYCARWGFKYDGEWSFDVWGAGTTVTVSS
VL: EIQMTQSPSSLSASPGDRVTITCRASQGISIWLSWYQQKPGNIPKVLINKASNLHIGVPSRFSGSGSGTDFTLTISSLEPEDAATYYCLQSQTYPLTFGGGTKLEIK
B4: A54 (antibody, V domains shown)
VH: QVLLVQSGAEVRTPGASVKIFCKASGYSFTSYTIHWLRQAPAQGLEWMGNINPTSGYTENNQRFKDRLTLTADTSTNTAYMELSSLRSADTAMYYCARWGAKYDGEWSFDVWGAGTTVTVSS
VL: EIQMTQSPSSLSASPGDRVTITCRASQGISIWLSWYQQKPGNIPKVLINKASNLHIGVPSRFSGSGSGTDFTLTISSLEPEDAATYYCLQSQTYPLTFGGGTKLEIK
B5: A42 (antibody, V domains shown)
VH: QVLLVQSGAEVRTPGASVKIFCKASGYSFTSYTIHWLRQAPAQGLEWMGNINPASGYTENNQRFKDRLTLTADTSTNTAYMELSSLRSADTAMYYCARWGFKYDGEWSFDVWGAGTTVTVSS
VL: EIQMTQSPSSLSASPGDRVTITCRASQGISIWLSWYQQKPGNIPKVLINKASNLHIGVPSRFSGSGSGTDFTLTISSLEPEDAATYYCLQSQTYPLTFGGGTKLEIK
B6: A45 (antibody, V domains shown)
VH: QVLLVQSGAEVRTPGASVKIFCKASGYSFTSYTIHWLRQAPAQGLEWMGNINPTSGATENNQRFKDRLTLTADTSTNTAYMELSSLRSADTAMYYCARWGFKYDGEWSFDVWGAGTTVTVSS
VL: EIQMTQSPSSLSASPGDRVTITCRASQGISIWLSWYQQKPGNIPKVLINKASNLHIGVPSRFSGSGSGTDFTLTISSLEPEDAATYYCLQSQTYPLTFGGGTKLEIK
B7: A40 (antibody, V domains shown)
VH: QVLLVQSGAEVRTPGASVKIFCKASGYSFTSYTIHWLRQAPAQGLEWMGNINATSGYTENNQRFKDRLTLTADTSTNTAYMELSSLRSADTAMYYCARWGFKYDGEWSFDVWGAGTTVTVSS
VL: EIQMTQSPSSLSASPGDRVTITCRASQGISIWLSWYQQKPGNIPKVLINKASNLHIGVPSRFSGSGSGTDFTLTISSLEPEDAATYYCLQSQTYPLTFGGGTKLEIK
B8: A37 (antibody, V domains shown)
VH: QVLLVQSGAEVRTPGASVKIFCKASGYSFTSYTIHWLRQAPAQGLEWMGAINPTSGYTENNQRFKDRLTLTADTSTNTAYMELSSLRSADTAMYYCARWGFKYDGEWSFDVWGAGTTVTVSS
VL: EIQMTQSPSSLSASPGDRVTITCRASQGISIWLSWYQQKPGNIPKVLINKASNLHIGVPSRFSGSGSGTDFTLTISSLEPEDAATYYCLQSQTYPLTFGGGTKLEIK
B9: A50 (antibody, V domains shown)
VH: QVLLVQSGAEVRTPGASVKIFCKASGYSFTSYTIHWLRQAPAQGLEWMGNINPTSGYTENNARFKDRLTLTADTSTNTAYMELSSLRSADTAMYYCARWGFKYDGEWSFDVWGAGTTVTVSS
VL: EIQMTQSPSSLSASPGDRVTITCRASQGISIWLSWYQQKPGNIPKVLINKASNLHIGVPSRFSGSGSGTDFTLTISSLEPEDAATYYCLQSQTYPLTFGGGTKLEIK
B10: A47 (antibody, V domains shown)
VH: QVLLVQSGAEVRTPGASVKIFCKASGYSFTSYTIHWLRQAPAQGLEWMGNINPTSGYTANNQRFKDRLTLTADTSTNTAYMELSSLRSADTAMYYCARWGFKYDGEWSFDVWGAGTTVTVSS
VL: EIQMTQSPSSLSASPGDRVTITCRASQGISIWLSWYQQKPGNIPKVLINKASNLHIGVPSRFSGSGSGTDFTLTISSLEPEDAATYYCLQSQTYPLTFGGGTKLEIK
B11: A34 (antibody, V domains shown)
VH: QVLLVQSGAEVRTPGASVKIFCKASGYSFTSYAIHWLRQAPAQGLEWMGNINPTSGYTENNQRFKDRLTLTADTSTNTAYMELSSLRSADTAMYYCARWGFKYDGEWSFDVWGAGTTVTVSS
VL: EIQMTQSPSSLSASPGDRVTITCRASQGISIWLSWYQQKPGNIPKVLINKASNLHIGVPSRFSGSGSGTDFTLTISSLEPEDAATYYCLQSQTYPLTFGGGTKLEIK
B12: A35 (antibody, V domains shown)
VH: QVLLVQSGAEVRTPGASVKIFCKASGYSFTSYTAHWLRQAPAQGLEWMGNINPTSGYTENNQRFKDRLTLTADTSTNTAYMELSSLRSADTAMYYCARWGFKYDGEWSFDVWGAGTTVTVSS
VL: EIQMTQSPSSLSASPGDRVTITCRASQGISIWLSWYQQKPGNIPKVLINKASNLHIGVPSRFSGSGSGTDFTLTISSLEPEDAATYYCLQSQTYPLTFGGGTKLEIK
B13: A48 (antibody, V domains shown)
VH: QVLLVQSGAEVRTPGASVKIFCKASGYSFTSYTIHWLRQAPAQGLEWMGNINPTSGYTEANQRFKDRLTLTADTSTNTAYMELSSLRSADTAMYYCARWGFKYDGEWSFDVWGAGTTVTVSS
VL: EIQMTQSPSSLSASPGDRVTITCRASQGISIWLSWYQQKPGNIPKVLINKASNLHIGVPSRFSGSGSGTDFTLTISSLEPEDAATYYCLQSQTYPLTFGGGTKLEIK
B14: A38 (antibody, V domains shown)
VH: QVLLVQSGAEVRTPGASVKIFCKASGYSFTSYTIHWLRQAPAQGLEWMGNANPTSGYTENNQRFKDRLTLTADTSTNTAYMELSSLRSADTAMYYCARWGFKYDGEWSFDVWGAGTTVTVSS
VL: EIQMTQSPSSLSASPGDRVTITCRASQGISIWLSWYQQKPGNIPKVLINKASNLHIGVPSRFSGSGSGTDFTLTISSLEPEDAATYYCLQSQTYPLTFGGGTKLEIK
B15: A49 (antibody, V domains shown)
VH: QVLLVQSGAEVRTPGASVKIFCKASGYSFTSYTIHWLRQAPAQGLEWMGNINPTSGYTENAQRFKDRLTLTADTSTNTAYMELSSLRSADTAMYYCARWGFKYDGEWSFDVWGAGTTVTVSS
VL: EIQMTQSPSSLSASPGDRVTITCRASQGISIWLSWYQQKPGNIPKVLINKASNLHIGVPSRFSGSGSGTDFTLTISSLEPEDAATYYCLQSQTYPLTFGGGTKLEIK
B16: A43 (antibody, V domains shown)
VH: QVLLVQSGAEVRTPGASVKIFCKASGYSFTSYTIHWLRQAPAQGLEWMGNINPTAGYTENNQRFKDRLTLTADTSTNTAYMELSSLRSADTAMYYCARWGFKYDGEWSFDVWGAGTTVTVSS
VL: EIQMTQSPSSLSASPGDRVTITCRASQGISIWLSWYQQKPGNIPKVLINKASNLHIGVPSRFSGSGSGTDFTLTISSLEPEDAATYYCLQSQTYPLTFGGGTKLEIK
B17: A52 (antibody, V domains shown)
VH: QVLLVQSGAEVRTPGASVKIFCKASGYSFTSYTIHWLRQAPAQGLEWMGNINPTSGYTENNQRFKDRLTLTADTSTNTAYMELSSLRSADTAMYYCARAGFKYDGEWSFDVWGAGTTVTVSS
VL: EIQMTQSPSSLSASPGDRVTITCRASQGISIWLSWYQQKPGNIPKVLINKASNLHIGVPSRFSGSGSGTDFTLTISSLEPEDAATYYCLQSQTYPLTFGGGTKLEIK
B18: A36 (antibody, V domains shown)
VH: QVLLVQSGAEVRTPGASVKIFCKASGYSFTSYTIAWLRQAPAQGLEWMGNINPTSGYTENNQRFKDRLTLTADTSTNTAYMELSSLRSADTAMYYCARWGFKYDGEWSFDVWGAGTTVTVSS
VL: EIQMTQSPSSLSASPGDRVTITCRASQGISIWLSWYQQKPGNIPKVLINKASNLHIGVPSRFSGSGSGTDFTLTISSLEPEDAATYYCLQSQTYPLTFGGGTKLEIK

What was measured:
[1] = target: T1, wildtype feline IL-31 protein …; assay: cell-based or functional assay
[2] = target: T1, wildtype feline IL-31 protein …; assay: Biacore, feline IL-31 chip, mAb 100 nM, share of points within parent mean +/-3 SD; set-up: key: % of mutant data points within parent mAb mean ±3 SD
Description: The mean response unit of four replicates of the parent mAb+/−3 standard deviations was used to generate parameters to define a threshold of response units comprising both the on- and off-rates antibody binding (FIG. 22). The percentage of data points for each mutant fell within this threshold was then used to define a “% similarity score” (FIG. 23).

Row | Binder | % Inhibition Relative to Parent (pSTAT, FCWF-4 cells) [1] | Binding Similarity score [2]
1 | B1 | 40.3% | 39.2
2 | B2 | 36.9% | 55.8
3 | B3 | 25.1% | 100
4 | B4 | -1% | 17.6
5 | B5 | 83.6% | 44.9
6 | B6 | 22.8% | 31.9
7 | B7 | 5.7% | 2.7
8 | B8 | 52.1% | 46.1
9 | B9 | 55.5% | 58.6
10 | B10 | 18% | 100
11 | B11 | 0% | 3.37
12 | B12 | 92.5% | 97.5
13 | B13 | 47.3% | 70.2
14 | B14 | 42.2% | 55.1
15 | B15 | 46.6% | 37
16 | B16 | 47.4% | 100
17 | B17 | -2.1% | 2.4
18 | B18 | 25.2% | 10.4

From patent US20250136677A1 (ZOETIS SERVICES, published 2025)
